Positions of bridges follow the written chain, without caps; N, C: chain ends. No end group written: not given here.
How the values were obtained:
[1] = target: T1, human receptor protein SLT (hSLT) (human, UniProt Q969V1 1-340); assay: cell-based or functional assay
[2] = target: T1, human receptor protein SLT (hSLT); assay: radioligand competition; [125I]-labeled MCH(4-19) on membrane fraction (30 ug/ml) of human SLT-expressing CHO cells, filtration
Experimental: Receptor binding assay was performed using [¹²⁵I]-labeled MCH (4-19) prepared in REFERENCE EXAMPLE 3 using Bolton-Hunter reagent and the cell membrane fraction prepared from human SLT-expressing CHO cells.
The cell membrane fraction prepared from human SLT-expressing CHO cells according to EXAMPLE 6 was diluted at various concentrations with the assay buffer (50 mM Tris-HCl, 5 mM EGTA (ethyleneglycol-bis(aminoethylether) tetraacetic acid), 5 mM magnesium acetate, 0.05% CHAPS, 0.1% BSA (bovine serum albumin), 0.25 mM PMSF (phenylmethylsulfonyl fluoride), 1 μg/ml pepstatin, 20 μg/ml leupeptin, pH 7.4). A 200 μl aliquot of each dilution was then dispensed in a polypropylene testing tube (Falcon, Inc., 2053). Two μl of DMSO and 2 μl of 20 nM [¹²⁵I]-labeled MCH (4-19) were added to the membrane fraction solution to determine the amount of total binding (TB), and 2 μl of a solution of 100 μM MCH in DMSO and 2 μl of […] [¹²⁵I]-labeled MCH (4-19) were added thereto to determine the amount of non-specific binding (NSB). After reaction at 25° C. for 60 minutes, the reaction solution was filtered with suction through a polyethyleneimine-treated glass filter (Whatman Co., GF-F). Following the filtration, the radioactivity of [¹²⁵I]-labeled MCH (4-19) remaining on the filter paper was measured with a γ-counter.
As a result, the IC₅₀ value was approximately 20 nM (FIG. 4). […]

T1 sequence (Q969V1 whole entry): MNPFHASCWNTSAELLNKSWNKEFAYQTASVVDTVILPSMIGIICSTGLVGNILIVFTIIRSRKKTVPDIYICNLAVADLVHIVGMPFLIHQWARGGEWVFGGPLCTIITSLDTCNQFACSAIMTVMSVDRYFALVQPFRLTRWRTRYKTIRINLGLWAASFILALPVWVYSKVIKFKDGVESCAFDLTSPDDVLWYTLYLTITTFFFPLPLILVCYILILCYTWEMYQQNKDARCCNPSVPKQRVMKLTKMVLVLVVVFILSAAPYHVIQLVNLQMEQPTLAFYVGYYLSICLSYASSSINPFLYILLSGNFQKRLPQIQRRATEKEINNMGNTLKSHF

| Binder | release of [3H] arachidonic acid metabolite in human SLT-expressing CHO cells, EC50 [1] [nM] | IC50 [2] [nM] |
| --- | --- | --- |
| DFDMLRCMLGRVYRPCWQV (disulfide 7-16) [melanin-concentrating hormone, MCH (synthetic human MCH)] | 0.57 | ~20 |
| MLRCMLGRVYRPCWQV-OH (disulfide 4-13; N-terminus assumed; SMILES CSCC[C@@H]1NC(=O)[C@@H](NC(=O)[C@H](CCCNC(=N)N)NC(=O)[C@H](CC(C)C)NC(=O)[C@@H](N)CCSC)CSSC[C@@H](C(=O)N[C@@H](Cc2c[nH]c3ccccc23)C(=O)N[C@@H](CCC(N)=O)C(=O)N[C@H](C(=O)O)C(C)C)NC(=O)[C@@H]2CCCN2C(=O)[C@H](CCCNC(=N)N)NC(=O)[C@H](Cc2ccc(O)cc2)NC(=O)[C@H](C(C)C)NC(=O)[C@H](CCCNC(=N)N)NC(=O)CNC(=O)[C@H](CC(C)C)NC1=O, also called amino terminal-truncated form of MCH; N-terminal truncated form) [Des-[Asp1, Phe2, Asp3]-MCH (MCH(4-19))] |  | 3.3 |

— patent US20040086941A1 (Takeda / Millennium, published 2004)
